Experimental data from US11965039B2, “Compstatin analogues and their medical uses” (priority 2018, dated 2024).
Starred links: 1 amine or outer side, 2 acyl side, 3 side chain; linkers in the order of their positions; H or OH if unused. Positions of bridges follow the written chain, without caps; N, C: chain ends. Non-standard residues stand in square brackets, D forms with d. Groups on a side chain read outwards from the residue. No end group written: not given here. *: point of attachment. Trp(1-Me) = Cn1cc(C[C@H](N)C(=O)O)c2ccccc21; C18 diacid = O=C(O)CCCCCCCCCCCCCCCCC(=O)*; γGlu = O=C(O)[C@H](CCC(=O)[*:2])N[*:1]; 1Nal = N[C@@H](Cc1cccc2ccccc12)C(=O)O; 2Nal = N[C@@H](Cc1ccc2ccccc2c1)C(=O)O; Sar = CNCC(=O)O

Legend:
[1] = target: T1, Human C3 (Complement tech cat #A113c) (human, UniProt P01024 23-1663); assay: cell-based or functional assay
T1 sequence (P01024 23-1663 limits assumed): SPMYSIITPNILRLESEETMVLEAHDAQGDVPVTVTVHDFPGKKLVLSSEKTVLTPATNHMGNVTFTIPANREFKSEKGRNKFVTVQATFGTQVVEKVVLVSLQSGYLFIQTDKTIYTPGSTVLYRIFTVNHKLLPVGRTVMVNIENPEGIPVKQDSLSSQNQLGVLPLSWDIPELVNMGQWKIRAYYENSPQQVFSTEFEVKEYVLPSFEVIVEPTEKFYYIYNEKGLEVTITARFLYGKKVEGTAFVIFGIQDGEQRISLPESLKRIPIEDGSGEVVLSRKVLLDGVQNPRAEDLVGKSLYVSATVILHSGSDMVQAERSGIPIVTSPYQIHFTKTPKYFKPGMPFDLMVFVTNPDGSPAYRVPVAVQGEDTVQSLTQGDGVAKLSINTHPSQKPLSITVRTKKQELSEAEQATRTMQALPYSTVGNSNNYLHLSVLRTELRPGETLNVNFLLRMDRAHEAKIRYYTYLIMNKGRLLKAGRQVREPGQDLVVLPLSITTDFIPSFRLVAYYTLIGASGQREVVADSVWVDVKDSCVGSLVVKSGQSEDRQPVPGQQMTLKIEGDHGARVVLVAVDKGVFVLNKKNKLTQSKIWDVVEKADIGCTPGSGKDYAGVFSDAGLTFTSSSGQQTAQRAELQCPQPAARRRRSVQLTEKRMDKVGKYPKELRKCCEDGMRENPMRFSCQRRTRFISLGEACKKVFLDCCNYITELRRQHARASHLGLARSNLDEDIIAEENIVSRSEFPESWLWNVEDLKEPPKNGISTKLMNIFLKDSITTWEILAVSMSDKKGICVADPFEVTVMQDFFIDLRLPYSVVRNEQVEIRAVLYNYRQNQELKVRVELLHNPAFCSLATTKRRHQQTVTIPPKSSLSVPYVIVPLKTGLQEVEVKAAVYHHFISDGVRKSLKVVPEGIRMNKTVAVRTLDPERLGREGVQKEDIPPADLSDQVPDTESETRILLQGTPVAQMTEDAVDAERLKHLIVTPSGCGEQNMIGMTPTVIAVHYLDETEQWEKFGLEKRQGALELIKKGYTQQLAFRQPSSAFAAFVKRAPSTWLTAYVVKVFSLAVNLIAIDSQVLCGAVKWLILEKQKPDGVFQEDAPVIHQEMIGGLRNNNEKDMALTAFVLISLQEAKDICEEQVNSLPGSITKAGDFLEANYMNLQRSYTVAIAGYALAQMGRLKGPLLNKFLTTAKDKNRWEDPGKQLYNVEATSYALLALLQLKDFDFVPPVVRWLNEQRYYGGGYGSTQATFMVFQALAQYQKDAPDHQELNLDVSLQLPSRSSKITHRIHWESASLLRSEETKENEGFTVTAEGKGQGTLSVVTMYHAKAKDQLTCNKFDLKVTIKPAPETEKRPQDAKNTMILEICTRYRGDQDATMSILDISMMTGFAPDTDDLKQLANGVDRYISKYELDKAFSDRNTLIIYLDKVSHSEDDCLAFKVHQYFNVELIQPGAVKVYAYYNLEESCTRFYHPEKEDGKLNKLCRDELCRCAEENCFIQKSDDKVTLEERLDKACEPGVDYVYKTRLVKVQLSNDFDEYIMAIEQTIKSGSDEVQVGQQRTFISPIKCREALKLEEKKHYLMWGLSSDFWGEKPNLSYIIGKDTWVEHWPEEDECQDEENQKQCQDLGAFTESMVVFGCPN

[2] = target: T1, Human C3 (Complement tech cat #A113c); assay: SPR (Biacore T200), human C3 immobilised, peptide injected, 1:1 fit
Method in brief: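 Human C3 amine-coupled on CM5 chips to about 3000 RU. Multi-cycle runs on Biacore T200 at 25° C: peptides at 6-8 rising concentrations, 60-120 s at 30 µL/min in 10 mM Tris pH 7.4, 150 mM NaCl, 0.05% Tween20, dissociation up to 10 min; 3 M MgCl2 regeneration. Kd derived.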

Kd [2] [nM]	Binder	inhibition of hemolysis IC50 [1] [nM]
21	Ac-EGSAICIWQDWGEHRCT-NH2 (disulfide 6-16; SMILES CC[C@H](C)[C@H](NC(=O)[C@H](C)NC(=O)[C@H](CO)NC(=O)CNC(=O)[C@H](CCC(=O)O)NC(C)=O)C(=O)N[C@H]1CSSC[C@@H](C(=O)N[C@H](C(N)=O)[C@@H](C)O)NC(=O)[C@H](CCCNC(=N)N)NC(=O)[C@H](Cc2c[nH]cn2)NC(=O)[C@H](CCC(=O)O)NC(=O)CNC(=O)[C@H](Cc2c[nH]c3ccccc23)NC(=O)[C@H](CC(=O)O)NC(=O)[C@H](CCC(N)=O)NC(=O)[C@H](Cc2c[nH]c3ccccc23)NC(=O)[C@H]([C@@H](C)CC)NC1=O) [Compound 29]	< 100
0.33	Ac-FCI[Trp(1-Me)]QDWGEHRCTGAES-NH2 (disulfide 2-12; SMILES CC[C@H](C)[C@@H]1NC(=O)[C@@H](NC(=O)[C@H](Cc2ccccc2)NC(C)=O)CSSC[C@@H](C(=O)N[C@H](C(=O)NCC(=O)N[C@@H](C)C(=O)N[C@@H](CCC(=O)O)C(=O)N[C@@H](CO)C(N)=O)[C@@H](C)O)NC(=O)[C@H](CCCNC(=N)N)NC(=O)[C@H](Cc2c[nH]cn2)NC(=O)[C@H](CCC(=O)O)NC(=O)CNC(=O)[C@H](Cc2c[nH]c3ccccc23)NC(=O)[C@H](CC(=O)O)NC(=O)[C@H](CCC(N)=O)NC(=O)[C@H](Cc2cn(C)c3ccccc23)NC1=O) [Compound 61]	< 100
13	Ac-EGSAICI[2Nal]QDWGEHRC[Sar]E-NH2 (disulfide 6-16; SMILES CC[C@H](C)[C@H](NC(=O)[C@H](C)NC(=O)[C@H](CO)NC(=O)CNC(=O)[C@H](CCC(=O)O)NC(C)=O)C(=O)N[C@H]1CSSC[C@@H](C(=O)N(C)CC(=O)N[C@@H](CCC(=O)O)C(N)=O)NC(=O)[C@H](CCCNC(=N)N)NC(=O)[C@H](Cc2c[nH]cn2)NC(=O)[C@H](CCC(=O)O)NC(=O)CNC(=O)[C@H](Cc2c[nH]c3ccccc23)NC(=O)[C@H](CC(=O)O)NC(=O)[C@H](CCC(N)=O)NC(=O)[C@H](Cc2ccc3ccccc3c2)NC(=O)[C@H]([C@@H](C)CC)NC1=O) [Compound 50]	< 100
0.68	Ac-SEFCI[Trp(1-Me)]QDWGEHRCTGAES-NH2 (disulfide 4-14; SMILES CC[C@H](C)[C@@H]1NC(=O)[C@@H](NC(=O)[C@H](Cc2ccccc2)NC(=O)[C@H](CCC(=O)O)NC(=O)[C@H](CO)NC(C)=O)CSSC[C@@H](C(=O)N[C@H](C(=O)NCC(=O)N[C@@H](C)C(=O)N[C@@H](CCC(=O)O)C(=O)N[C@@H](CO)C(N)=O)[C@@H](C)O)NC(=O)[C@H](CCCNC(=N)N)NC(=O)[C@H](Cc2c[nH]cn2)NC(=O)[C@H](CCC(=O)O)NC(=O)CNC(=O)[C@H](Cc2c[nH]c3ccccc23)NC(=O)[C@H](CC(=O)O)NC(=O)[C@H](CCC(N)=O)NC(=O)[C@H](Cc2cn(C)c3ccccc23)NC1=O) [Compound 67]	< 100

Continued, binder first:

Binder	Kd [2] [nM]	inhibition of hemolysis IC50 [1] [nM]
Ac-SEFCI[Trp(1-Me)]QDWGEHRC[Sar]EGESESK([γGlu-C18 diacid])-NH2 (disulfide 4-14; SMILES CC[C@H](C)[C@@H]1NC(=O)[C@@H](NC(=O)[C@H](Cc2ccccc2)NC(=O)[C@H](CCC(=O)O)NC(=O)[C@H](CO)NC(C)=O)CSSC[C@@H](C(=O)N(C)CC(=O)N[C@@H](CCC(=O)O)C(=O)NCC(=O)N[C@@H](CCC(=O)O)C(=O)N[C@@H](CO)C(=O)N[C@@H](CCC(=O)O)C(=O)N[C@@H](CO)C(=O)N[C@@H](CCCCNC(=O)CC[C@H](NC(=O)CCCCCCCCCCCCCCCCC(=O)O)C(=O)O)C(N)=O)NC(=O)[C@H](CCCNC(=N)N)NC(=O)[C@H](Cc2c[nH]cn2)NC(=O)[C@H](CCC(=O)O)NC(=O)CNC(=O)[C@H](Cc2c[nH]c3ccccc23)NC(=O)[C@H](CC(=O)O)NC(=O)[C@H](CCC(N)=O)NC(=O)[C@H](Cc2cn(C)c3ccccc23)NC1=O) [Compound 141]	6.6	< 100
Ac-FCI[1Nal]QDWGEHRCTGAES-NH2 (disulfide 2-12; SMILES CC[C@H](C)[C@@H]1NC(=O)[C@@H](NC(=O)[C@H](Cc2ccccc2)NC(C)=O)CSSC[C@@H](C(=O)N[C@H](C(=O)NCC(=O)N[C@@H](C)C(=O)N[C@@H](CCC(=O)O)C(=O)N[C@@H](CO)C(N)=O)[C@@H](C)O)NC(=O)[C@H](CCCNC(=N)N)NC(=O)[C@H](Cc2c[nH]cn2)NC(=O)[C@H](CCC(=O)O)NC(=O)CNC(=O)[C@H](Cc2c[nH]c3ccccc23)NC(=O)[C@H](CC(=O)O)NC(=O)[C@H](CCC(N)=O)NC(=O)[C@H](Cc2cccc3ccccc23)NC1=O) [Compound 63]	4.3	< 100
Ac-FCIWQDWGEHRCTGAE-NH2 (disulfide 2-12; SMILES CC[C@H](C)[C@@H]1NC(=O)[C@@H](NC(=O)[C@H](Cc2ccccc2)NC(C)=O)CSSC[C@@H](C(=O)N[C@H](C(=O)NCC(=O)N[C@@H](C)C(=O)N[C@@H](CCC(=O)O)C(N)=O)[C@@H](C)O)NC(=O)[C@H](CCCNC(=N)N)NC(=O)[C@H](Cc2c[nH]cn2)NC(=O)[C@H](CCC(=O)O)NC(=O)CNC(=O)[C@H](Cc2c[nH]c3ccccc23)NC(=O)[C@H](CC(=O)O)NC(=O)[C@H](CCC(N)=O)NC(=O)[C@H](Cc2c[nH]c3ccccc23)NC1=O) [Compound 43]	3.3	< 100
Ac-SEFCI[Trp(1-Me)]QDWGEHRCTEGE (disulfide 4-14; not fully specified (C-terminus); printed as Ac-SEFC(1)I[1-Me-Trp]QDWGEHRC(1)TEGE[Peg3]ES-K([17-carboxy-heptadecanoyl][γGlu])-NH2) [Compound 142]	4.8	< 100
Ac-FCIWQDWGEHRCT-NH2 (disulfide 2-12; SMILES CC[C@H](C)[C@@H]1NC(=O)[C@@H](NC(=O)[C@H](Cc2ccccc2)NC(C)=O)CSSC[C@@H](C(=O)N[C@H](C(N)=O)[C@@H](C)O)NC(=O)[C@H](CCCNC(=N)N)NC(=O)[C@H](Cc2c[nH]cn2)NC(=O)[C@H](CCC(=O)O)NC(=O)CNC(=O)[C@H](Cc2c[nH]c3ccccc23)NC(=O)[C@H](CC(=O)O)NC(=O)[C@H](CCC(N)=O)NC(=O)[C@H](Cc2c[nH]c3ccccc23)NC1=O) [Compound 23]	2.8	< 100
Ac-EGSAICI[Trp(1-Me)]QDWGEHRC[Sar]E-NH2 (disulfide 6-16; SMILES CC[C@H](C)[C@H](NC(=O)[C@H](C)NC(=O)[C@H](CO)NC(=O)CNC(=O)[C@H](CCC(=O)O)NC(C)=O)C(=O)N[C@H]1CSSC[C@@H](C(=O)N(C)CC(=O)N[C@@H](CCC(=O)O)C(N)=O)NC(=O)[C@H](CCCNC(=N)N)NC(=O)[C@H](Cc2c[nH]cn2)NC(=O)[C@H](CCC(=O)O)NC(=O)CNC(=O)[C@H](Cc2c[nH]c3ccccc23)NC(=O)[C@H](CC(=O)O)NC(=O)[C@H](CCC(N)=O)NC(=O)[C@H](Cc2cn(C)c3ccccc23)NC(=O)[C@H]([C@@H](C)CC)NC1=O) [Compound 49]	3.2	< 100
